The results in this text go back to publication PMC11252911 (Proceedings of the National Academy of Sciences of the …, 2024).

Holding throughout (assay): ITC
For orientation: Isothermal titration calorimetry measures the heat released or taken up as one component is titrated into another.

Test [1] addresses Pwl2 without the signal peptide (residues 22 to 145) (Magnaporthe oryzae).
The target of test [2] is Pwl4 (Magnaporthe oryzae).
Test [3] has as its target T1, HMA domain of OsHIPP43 (residues 26 to 101) (rice, UniProt Q8LJL3 26-101).
T1 construct: also called Os01g0507700
T1 sequence (looked up): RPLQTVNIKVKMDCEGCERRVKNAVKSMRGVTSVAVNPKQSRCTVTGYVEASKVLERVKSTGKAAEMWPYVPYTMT
The following applies: both partners purified.

In test [1], “HMA domain of OsHIPP43 (residues 26 to 101) (from UniProt Q8LJL3 26-101) (domain or fragment)” yielded an equilibrium dissociation constant (Kd) of 191 nM and a dH of -67.6 kcal/mol. The molecule also yielded a Kd in test [2] of 124 nM.

B1: Pwl1 (natural protein)
chain: RKWTNKVIYNDKGEREGSISIRKGAEGDFNCGPGYPGGPDRMVRVHEDNGNIRGMPPGYRLGPDDKEDKRDNQYYSRNGYHVGDGPAEYQNHGGGQWGDGYYGPPGEITNQHGKRQGDQGCHIM
For B1, the equilibrium dissociation constant (Kd) in test [3] is 147 nM.

What is called Kd is the equilibrium constant for the complex coming apart.
